Assay results taken from article PMC12866175 (European journal of nuclear medicine and molecular imaging, 2021).

Experiment: Radiation dosimetry and clearance kinetics from biodistribution data
Type: in vivo, BALB/c mice
Conditions: for Total absorbed dose/injected activity: sum of five α-emitting radionuclides

Compound: C[C@@H](O)[C@H](NC(=O)[C@@H]1CSSC[C@H](NC(=O)[C@@H](Cc2ccccc2)NC(=O)CN2CCN(CC(=O)O)CCN(CC(=O)O)CCN(CC(=O)O)CC2)C(=O)N[C@@H](Cc2ccc(O)cc2)C(=O)N[C@H](Cc2c[nH]c3ccccc23)C(=O)N[C@@H](CCCCN)C(=O)N[C@@H]([C@@H](C)O)C(=O)N1)C(=O)O [[^225Ac]Ac-DOTA-TATE, metal not drawn]
- Decay rate constant, λeff (^221Fr, Stomach): 0.0170 h⁻¹
- Initial activity/organ, A○ (^221Fr, Stomach): 0.0852 kBq
- lower effective half-life of kidneys compared to liver (^225Ac): ~5 fold
- Absorbed dose/injected activity (^225Ac, Blood): 0.0000 Gy/kBq
- Accumulated activity/organ, A~ (^225Ac, Blood): 0.0080 kBq×h
- Decay rate constant, λeff (^225Ac, Blood): 0.0206 h⁻¹
- Initial activity/organ, A○ (^225Ac, Blood): 0.0003 kBq
- Absorbed dose/injected activity (^225Ac, Bone): 0.0004 Gy/kBq
- Accumulated activity/organ, A~ (^225Ac, Bone): 1.4274 kBq×h
- Decay rate constant, λeff (^225Ac, Bone): 0.0030 h⁻¹
- Initial activity/organ, A○ (^225Ac, Bone): 0.0131 kBq
- Absorbed dose/injected activity (^225Ac, Brain): 0.0001 Gy/kBq
- Accumulated activity/organ, A~ (^225Ac, Brain): 0.8190 kBq×h
- Decay rate constant, λeff (^225Ac, Brain): -0.0103 h⁻¹
- Initial activity/organ, A○ (^225Ac, Brain): 0.0019 kBq
- Absorbed dose/injected activity (^225Ac, Heart): 0.0001 Gy/kBq
- Accumulated activity/organ, A~ (^225Ac, Heart): 0.4871 kBq×h
- Decay rate constant, λeff (^225Ac, Heart): -0.0004 h⁻¹
- Initial activity/organ, A○ (^225Ac, Heart): 0.0033 kBq
- Absorbed dose/injected activity (^225Ac, Intestine): 0.0001 Gy/kBq
- Accumulated activity/organ, A~ (^225Ac, Intestine): 4.4589 kBq×h
- Decay rate constant, λeff (^225Ac, Intestine): 0.0200 h⁻¹
- Initial activity/organ, A○ (^225Ac, Intestine): 0.1527 kBq
- Absorbed dose/injected activity (^225Ac, Kidney): 0.0012 Gy/kBq
- Accumulated activity/organ, A~ (^225Ac, Kidney): 8.2462 kBq×h
- Decay rate constant, λeff (^225Ac, Kidney): 0.0250 h⁻¹
- Initial activity/organ, A○ (^225Ac, Kidney): 0.3862 kBq
- Absorbed dose/injected activity (^225Ac, Liver): 0.0012 Gy/kBq
- Accumulated activity/organ, A~ (^225Ac, Liver): 29.4458 kBq×h
- Decay rate constant, λeff (^225Ac, Liver): -0.0053 h⁻¹
- Initial activity/organ, A○ (^225Ac, Liver): 0.1200 kBq
- Absorbed dose/injected activity (^225Ac, Lung): 0.0001 Gy/kBq
- Accumulated activity/organ, A~ (^225Ac, Lung): 1.0829 kBq×h
- Decay rate constant, λeff (^225Ac, Lung): 0.0130 h⁻¹
- Initial activity/organ, A○ (^225Ac, Lung): 0.0227 kBq
- Absorbed dose/injected activity (^225Ac, Muscle): 0.0001 Gy/kBq
- Accumulated activity/organ, A~ (^225Ac, Muscle): 0.5613 kBq×h
- Decay rate constant, λeff (^225Ac, Muscle): -0.0049 h⁻¹
- Initial activity/organ, A○ (^225Ac, Muscle): 0.0024 kBq
- Absorbed dose/injected activity (^225Ac, Pancreas): 0.0003 Gy/kBq
- Accumulated activity/organ, A~ (^225Ac, Pancreas): 1.4271 kBq×h
- Decay rate constant, λeff (^225Ac, Pancreas): 0.0060 h⁻¹
- Initial activity/organ, A○ (^225Ac, Pancreas): 0.0171 kBq
- Absorbed dose/injected activity (^225Ac, Salivary): 0.0002 Gy/kBq
- Accumulated activity/organ, A~ (^225Ac, Salivary): 0.8906 kBq×h
- Decay rate constant, λeff (^225Ac, Salivary): -0.0077 h⁻¹
- Initial activity/organ, A○ (^225Ac, Salivary): 0.0028 kBq
- Absorbed dose/injected activity (^225Ac, Skin): 0.0001 Gy/kBq
- Accumulated activity/organ, A~ (^225Ac, Skin): 0.8656 kBq×h
- Decay rate constant, λeff (^225Ac, Skin): -0.0092 h⁻¹
- Initial activity/organ, A○ (^225Ac, Skin): 0.0023 kBq
- Absorbed dose/injected activity (^225Ac, Spleen): 0.0001 Gy/kBq
- Accumulated activity/organ, A~ (^225Ac, Spleen): 0.3228 kBq×h
- Decay rate constant, λeff (^225Ac, Spleen): 0.0062 h⁻¹
- Initial activity/organ, A○ (^225Ac, Spleen): 0.0039 kBq
- Absorbed dose/injected activity (^225Ac, Stomach): 0.0004 Gy/kBq
- Accumulated activity/organ, A~ (^225Ac, Stomach): 2.6801 kBq×h
- Decay rate constant, λeff (^225Ac, Stomach): 0.0190 h⁻¹
- Initial activity/organ, A○ (^225Ac, Stomach): 0.0859 kBq
- Total absorbed dose/injected activity (Blood): 0.0002 Gy/kBq
- Total absorbed dose/injected activity (Bone): 0.0014 Gy/kBq
- Total absorbed dose/injected activity (Brain): 0.0004 Gy/kBq
- Total absorbed dose/injected activity (Heart): 0.0004 Gy/kBq
- Total absorbed dose/injected activity (Intestine): 0.0007 Gy/kBq
- Total absorbed dose/injected activity (Kidney): 0.0068 Gy/kBq
- Total absorbed dose/injected activity (Liver): 0.0059 Gy/kBq
- Total absorbed dose/injected activity (Lung): 0.0009 Gy/kBq
- Total absorbed dose/injected activity (Muscle): 0.0003 Gy/kBq
- Total absorbed dose/injected activity (Pancreas): 0.0011 Gy/kBq
- Total absorbed dose/injected activity (Salivary): 0.0008 Gy/kBq
- Total absorbed dose/injected activity (Skin): 0.0004 Gy/kBq
- Total absorbed dose/injected activity (Spleen): 0.0016 Gy/kBq
- Total absorbed dose/injected activity (Stomach): 0.0017 Gy/kBq
